Source: PMC10589136, “Prenylation of dimeric cyclo-L-Trp-L-Trp by the promiscuous cyclo-L-Trp-L-Ala prenyltransferase EchPT1” (Applied Microbiology and Biotechnology, 2023)

Assays:
Test in all cases: purified protein
purified protein [1] = substrate: CC(C)=CCOP(=O)(O)OP(=O)(O)O; conditions: 1 mM tetratryptomycin A (3) as prenyl acceptor, 5 mM CaCl2, Tris-HCl pH 7.5, 37 °C, 30 min, formation of 3a2
purified protein [2] = substrate: O=C1N[C@@H](Cc2c[nH]c3ccccc23)C(=O)N2C3Nc4ccccc4C3(C34C[C@H]5C(=O)N[C@@H](Cc6c[nH]c7ccccc67)C(=O)N5C3Nc3ccccc34)C[C@@H]12; conditions: 1 mM DMAPP, 5 mM CaCl2, Tris-HCl pH 7.5, 37 °C
purified protein [3] = substrate: O=C1N[C@@H](Cc2cn(C34C[C@H]5C(=O)N[C@@H](Cc6c[nH]c7ccccc67)C(=O)N5C3Nc3ccccc34)c3ccccc23)C(=O)N[C@H]1Cc1c[nH]c2ccccc12; conditions: 1 mM DMAPP, 5 mM CaCl2, Tris-HCl pH 7.5, 37 °C, 30 min, formation of monoprenylated 4a1
[4] = 20 min, formation of diprenylated 5a2
[5] = 30 min, formation of diprenylated 3a2

B1: EchPT1 (Aspergillus ruber) (protein)
chain: MPSEVLTSYYDYPTHDQEAWWRDTGPLFGRFLKGAGYDVHTQYQYLVFFIKNILPSLGPYPARWRSTITPTGLPIEYSLNFQLNSRPLLRIGFEPLSRFSGTPQDPYNKIAAADLLNQLSKLQLHEFDTQLFNHFTNEFELSKSESESLQKQGGINGKSTVRSQTAFGFDLKGGRVAVKGYAFAGLKNRATGTPVGQLISNSIRNLEPQMHCWDSFSILNSYMEESDGWNEYSFVSWDCVDIERSRLKLYGVHNAVTWDKVKEMWTLGGRIENNATIKTGLELLQHMWSLLQINEGDRDYKGGFAADNGGKTLPIIWNYELNKGSPHPAPKFYFPVHGENDLQVSKSISEFFTHLGWQDHARQYPHLLRQIYPNQNISQTERLQAWISFAYNERTGPYLSVYYYSAERPPWGSDQVK
Km (purified protein [1]): 50 ± 7 µM | kcat (purified protein [1]): 0.03 ± 0.002 s⁻¹ | kcat/Km (purified protein [1]): 600 M⁻¹ s⁻¹ | Km (purified protein [2]; [4]): 50 ± 5 µM | kcat (purified protein [2]; [4]): 0.03 ± 0.001 s⁻¹ | kcat/Km (purified protein [2]; [4]): 600 M⁻¹ s⁻¹ | Km (purified protein [2]; [5]): 60 ± 7 µM | kcat (purified protein [2]; [5]): 0.05 ± 0.0003 s⁻¹ | kcat/Km (purified protein [2]; [5]): 833 M⁻¹ s⁻¹ | Km (purified protein [3]): 250 ± 30 µM | kcat (purified protein [3]): 0.14 ± 0.01 s⁻¹ | kcat/Km (purified protein [3]): 560 M⁻¹ s⁻¹
